Assay results from publication PMC7820290 (Nature Communications, 2020).

Legend:
Experiment in all cases: […]; 5 mM HEPES pH 7.5, 80 mM KCl, 20 °C; […]
Details in all cases: both partners purified
[1] = target: T1, SARS-CoV-2 N protein residues 1–364 (SARS-CoV-2, UniProt P0DTC9 1-364)
T1 construct: also called N^1–364

[2] = target: T2, SARS-CoV-2 N protein residues 49–419 (SARS-CoV-2, UniProt P0DTC9 49-419)
T2 construct: also called N^49–419

[3] = target: T3, SARS-CoV-2 N protein residues 49–364 (SARS-CoV-2, UniProt P0DTC9 49-364)
T3 construct: also called N^49–364

Measured: binding result

B1: soluble C-terminal domain of SARS-CoV-2 membrane (M) protein (aa 104–222 of 222) fused to GFP (domain or fragment)
chain: ARTRSMWSFNPETNILLNVPLHGTILTRPLLESELVIGAVILRGHLRIAGHHLGRCDIKDLPKEITVATSRTLSYYKLGASQRVAGDSGFAAYSRYRIGNYKLNTDHSSSSDNIALLVQ
notes: also called GFP-M^104–222
binds: all assays above
